Experimental data taken from article PMC5505701, “Somatostatin binds to the human amyloid β peptide and favors the formation of distinct oligomers” (eLife, 2017).

B1: Phosphoglycerate kinase 1: human brain protein (protein, UniProt P00558 2-417, looked up)
Phosphoglycerate kinase 1: SLSNKLTLDKLDVKGKRVVMRVDFNVPMKNNQITNNQRIKAAVPSIKFCLDNGAKSVVLMSHLGRPDGVPMPDKYSLEPVAVELKSLLGKDVLFLKDCVGPEVEKACANPAAGSVILLENLRFHVEEEGKGKDASGNKVKAEPAKIEAFRASLSKLGDVYVNDAFGTAHRAHSSMVGVNLPQKAGGFLMKKELNYFAKALESPERPFLAILGGAKVADKIQLINNMLDKVNEMIIGGGMAFTFLKVLNNMEIGTSLFDEEGAKIVKDLMSKAEKNGVKITLPVDFVTADKFDENAKTGQATVASGIPAGWMGLDCGPESSKKYAEAVTRAKQIVWNGPVGVFEWEAFARGTKALMDEVVKATSRGCITIIGGGDTATCCAKWNTEDKVSHVSTGGGASLELLEGKVLPGVDALSNI
B2: Dihydropyrimidinase-related protein 5: human brain protein (protein, UniProt Q9BPU6 1-564, looked up)
Dihydropyrimidinase-related …: MLANSASVRILIKGGKVVNDDCTHEADVYIENGIIQQVGRELMIPGGAKVIDATGKLVIPGGIDTSTHFHQTFMNATCVDDFYHGTKAALVGGTTMIIGHVLPDKETSLVDAYEKCRGLADPKVCCDYALHVGITWWAPKVKAEMETLVREKGVNSFQMFMTYKDLYMLRDSELYQVLHACKDIGAIARVHAENGELVAEGAKEALDLGITGPEGIEISRPEELEAEATHRVITIANRTHCPIYLVNVSSISAGDVIAAAKMQGKVVLAETTTAHATLTGLHYYHQDWSHAAAYVTVPPLRLDTNTSTYLMSLLANDTLNIVASDHRPFTTKQKAMGKEDFTKIPHGVSGVQDRMSVIWERGVVGGKMDENRFVAVTSSNAAKLLNLYPRKGRIIPGADADVVVWDPEATKTISASTQVQGGDFNLYENMRCHGVPLVTISRGRVVYENGVFMCAEGTGKFCPLRSFPDTVYKKLVQREKTLKVRGVDRTPYLGDVAVVVHPGKKEMGTPLADTPTRPVTRHGGMRDLHESSFSLSGSQIDDHVPKRASARILAPPGGRSSGIW
B3: Peroxiredoxin-2: human brain protein (protein, UniProt P32119 2-198, looked up)
Peroxiredoxin-2: ASGNARIGKPAPDFKATAVVDGAFKEVKLSDYKGKYVVLFFYPLDFTFVCPTEIIAFSNRAEDFRKLGCEVLGVSVDSQFTHLAWINTPRKEGGLGPLNIPLLADVTRRLSEDYGVLKTDEGIAYRGLFIIDGKGVLRQITVNDLPVGRSVDEALRLVQAFQYTDEHGEVCPAGWKPGSDTIKPNVDDSKEYFSKHN
B4: Centractin, beta: human brain protein (protein, UniProt P42025 1-376, looked up)
Beta-centractin: MESYDIIANQPVVIDNGSGVIKAGFAGDQIPKYCFPNYVGRPKHMRVMAGALEGDLFIGPKAEEHRGLLTIRYPMEHGVVRDWNDMERIWQYVYSKDQLQTFSEEHPVLLTEAPLNPSKNREKAAEVFFETFNVPALFISMQAVLSLYATGRTTGVVLDSGDGVTHAVPIYEGFAMPHSIMRVDIAGRDVSRYLRLLLRKEGVDFHTSAEFEVVRTIKERACYLSINPQKDEALETEKVQYTLPDGSTLDVGPARFRAPELLFQPDLVGDESEGLHEVVAFAIHKSDMDLRRTLFANIVLSGGSTLFKGFGDRLLSEVKKLAPKDIKIKISAPQERLYSTWIGGSILASLDTFKKMWVSKKEYEEDGSRAIHRKTF
B5: Cytosolic acyl CoA thioester hydrolase: human brain protein (protein, UniProt O00154 1-380, looked up)
Cytosolic acyl coenzyme A …: MKLLARALRLCEFGRQASSRRLVAGQGCVGPRRGCCAPVQVVGPRADLPPCGACITGRIMRPDDANVAGNVHGGTILKMIEEAGAIISTRHCNSQNGERCVAALARVERTDFLSPMCIGEVAHVSAEITYTSKHSVEVQVNVMSENILTGAKKLTNKATLWYVPLSLKNVDKVLEVPPVVYSRQEQEEEGRKRYEAQKLERMETKWRNGDIVQPVLNPEPNTVSYSQSSLIHLVGPSDCTLHGFVHGGVTMKLMDEVAGIVAARHCKTNIVTASVDAINFHDKIRKGCVITISGRMTFTSNKSMEIEVLVDADPVVDSSQKRYRAASAFFTYVSLSQEGRSLPVPQLVPETEDEKKRFEEGKGRYLQMKAKRQGHAEPQP
B6: Medium-chain specific acyl-CoA dehydrogenase: human brain protein (protein, UniProt P11310 26-421, looked up)
Medium-chain specific …: KANRQREPGLGFSFEFTEQQKEFQATARKFAREEIIPVAAEYDKTGEYPVPLIRRAWELGLMNTHIPENCGGLGLGTFDACLISEELAYGCTGVQTAIEGNSLGQMPIIIAGNDQQKKKYLGRMTEEPLMCAYCVTEPGAGSDVAGIKTKAEKKGDEYIINGQKMWITNGGKANWYFLLARSDPDPKAPANKAFTGFIVEADTPGIQIGRKELNMGQRCSDTRGIVFEDVKVPKENVLIGDGAGFKVAMGAFDKTRPVVAAGAVGLAQRALDEATKYALERKTFGKLLVEHQAISFMLAEMAMKVELARMSYQRAAWEVDSGRRNTYYASIAKAFAGDIANQLATDAVQILGGNGFNTEYPVEKLMRDAKIYQIYEGTSQIQRLIVAREHIDKYKN
B7: ATP synthase subunit gamma, mitochondrial: human brain protein (protein, UniProt P36542 26-298, looked up)
ATP synthase F(1) complex …: ATLKDITRRLKSIKNIQKITKSMKMVAAAKYARAERELKPARIYGLGSLALYEKADIKGPEDKKKHLLIGVSSDRGLCGAIHSSIAKQMKSEVATLTAAGKEVMLVGIGDKIRGILYRTHSDQFLVAFKEVGRKPPTFGDASVIALELLNSGYEFDEGSIIFNKFRSVISYKTEEKPIFSLNTVASADSMSIYDDIDADVLQNYQEYNLANIIYYSLKESTTSEQSARMTAMDNASKNASEMIDKLTLTFNRTRQAVITKELIEIISGAAALD
B8: Peroxiredoxin-6: human brain protein (protein, UniProt P30041 2-224, looked up)
Peroxiredoxin-6: PGGLLLGDVAPNFEANTTVGRIRFHDFLGDSWGILFSHPRDFTPVCTTELGRAAKLAPEFAKRNVKLIALSIDSVEDHLAWSKDINAYNCEEPTEKLPFPIIDDRNRELAILLGMLDPAEKDEKGMPVTARVVFVFGPDKKLKLSILYPATTGRNFDEILRVVISLQLTAEKRVATPVDWKDGDSVMVLPTIPEEEAKKLFPKGVFTKELPSGKKYLRYTPQP
B9: Mu-crystallin homolog: human brain protein (protein, UniProt Q14894 1-314, looked up)
Ketimine reductase …: MSRVPAFLSAAEVEEHLRSSSLLIPPLETALANFSSGPEGGVMQPVRTVVPVTKHRGYLGVMPAYSAAEDALTTKLVTFYEDRGITSVVPSHQATVLLFEPSNGTLLAVMDGNVITAKRTAAVSAIATKFLKPPSSEVLCILGAGVQAYSHYEIFTEQFSFKEVRIWNRTKENAEKFADTVQGEVRVCSSVQEAVAGADVIITVTLATEPILFGEWVKPGAHINAVGASRPDWRELDDELMKEAVLYVDSQEAALKESGDVLLSGAEIFAELGEVIKGVKPAHCEKTTVFKSLGMAVEDTVAAKLIYDSWSSGK
B10: Ubiquitin carboxyl-terminal hydrolase L1: human brain protein (protein, UniProt P09936 1-220, looked up)
Ubiquitin carboxyl-terminal …: MQLKPMEINPEMLNKVLSRLGVAGQWRFVDVLGLEEESLGSVPAPACALLLLFPLTAQHENFRKKQIEELKGQEVSPKVYFMKQTIGNSCGTIGLIHAVANNQDKLGFEDGSVLKQFLSETEKMSPEDRAKCFEKNEAIQAAHDAVAQEGQCRVDDKVNFHFILFNNVDGHLYELDGRMPFPVNHGASSEDTLLKDAAKVCREFTEREQGEVRFSAVALC
B11: NAD-dependent deacetylase sirtuin-2: human brain protein (protein, UniProt Q8IXJ6 2-389, looked up)
NAD-dependent protein …: AEPDPSHPLETQAGKVQEAQDSDSDSEGGAAGGEADMDFLRNLFSQTLSLGSQKERLLDELTLEGVARYMQSERCRRVICLVGAGISTSAGIPDFRSPSTGLYDNLEKYHLPYPEAIFEISYFKKHPEPFFALAKELYPGQFKPTICHYFMRLLKDKGLLLRCYTQNIDTLERIAGLEQEDLVEAHGTFYTSHCVSASCRHEYPLSWMKEKIFSEVTPKCEDCQSLVKPDIVFFGESLPARFFSCMQSDFLKVDLLLVMGTSLQVQPFASLISKAPLSTPRLLINKEKAGQSDPFLGMIMGLGGGMDFDSKKAYRDVAWLGECDQGCLALAELLGWKKELEDLVRREHASIDAQSGAGVPNPSTSASPKKSPPPAKDEARTTEREKPQ
B12: Tryptophanyl-tRNA synthetase, cytoplasmic: human brain protein (protein, UniProt P23381 2-471, looked up)
Tryptophan--tRNA ligase, …: PNSEPASLLELFNSIATQGELVRSLKAGNASKDEIDSAVKMLVSLKMSYKAAAGEDYKADCPPGNPAPTSNHGPDATEAEEDFVDPWTVQTSSAKGIDYDKLIVRFGSSKIDKELINRIERATGQRPHHFLRRGIFFSHRDMNQVLDAYENKKPFYLYTGRGPSSEAMHVGHLIPFIFTKWLQDVFNVPLVIQMTDDEKYLWKDLTLDQAYSYAVENAKDIIACGFDINKTFIFSDLDYMGMSSGFYKNVVKIQKHVTFNQVKGIFGFTDSDCIGKISFPAIQAAPSFSNSFPQIFRDRTDIQCLIPCAIDQDPYFRMTRDVAPRIGYPKPALLHSTFFPALQGAQTKMSASDPNSSIFLTDTAKQIKTKVNKHAFSGGRDTIEEHRQFGGNCDVDVSFMYLTFFLEDDDKLEQIRKDYTSGAMLTGELKKALIEVLQPLIAEHQARRKEVTDEIVKEFMTPRKLSFDFQ

Each molecule was assayed on oligomeric versus monomeric Aβ1-42 (Aβ1-42-biotin bait) (assay: Affinity capture interactome Experiment III (oAβ1-42-biotin vs mAβ1-42-biotin)). Conditions: oligomeric versus monomeric bait; human frontal lobe digitonin extract; TMT; pH 8.0, 4°C overnight.

Row | Molecule | Experiment III oAβ1-42-B/mAβ1-42-B Ratio
1 | B1 | 1.73
2 | B2 | 3.79
3 | B3 | 2.40
4 | B4 | 3.25
5 | B5 | 4.03
6 | B6 | 1.82
7 | B7 | 3.29
8 | B8 | 1.54
9 | B9 | 2.41
10 | B10 | 1.39
11 | B11 | 2.58
12 | B12 | 3.97

Each molecule was assayed on oligomeric Aβ1-42 (oAβ1-42-biotin bait) (assay: Affinity capture interactome Experiment II (C-terminally tethered oAβ1-42-biotin vs biotin)). Conditions: enrichment relative to biotin-only negative control; human frontal lobe digitonin extract; TMT; pH 8.0, 4°C overnight.

Row | Molecule | Experiment II oAβ1-42-B/B Ratio
13 | B1 | 1.38
14 | B3 | 1.51
15 | B8 | 1.42
16 | B10 | 1.87
